± gives the standard error. Variants at the floor of the assay were thinned out.
B1: glmS ribozyme (parent)
chain: AUAAAAGCGCCAGAACUACAGAAAUGUAGUUGACGAGGAGGAGGUUUAUCGAAUUUUCGGCGGAUGCCUCCAAA

Variants of: B1
Assay: self-cleavage kobs at 2500 uM GlcN6P; higher = faster cleavage; RNA array
Conditions: with glucosamine-6-phosphate
Method in brief: (§1)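 Barcoded ribozyme variants on sequenced MiSeq chips were transcribed in situ by E. coli RNA polymerase and followed at 37 °C through a hybridised Cy3 probe. Glucosamine-6-phosphate at 40 μM to 10 mM in HEPES/KCl/Mg(OAc)2 buffer was flowed in, and tiles were imaged over ~14 h. Signals were normalised to baseline and to non-cleaving reference variants, and per-tile medians were fit to one- or two-exponential decays to give kobs. Weighted Michaelis–Menten fits across concentrations gave kcat and KM.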

Variant	self-cleavage kobs at 2500 uM GlcN6P [s⁻¹]
AUAAAAGCGCCAGAACUACAGAAAUGUAGUUGAUGAGGACGAGGUUUAUCGAAUUAUCGGCGAAUGCCUCCAAA	< 1e-05
AUAAAAGCGCCAGAACUACAGAAAUGUAGUUGAAUAGGAGGAGGUUUAUCGAAUGUUCGGCGGAUGCCUCCAAA	< 1e-05
AUAAAAGCGCCAGAACUACAGAAAUGUAGUUGAUGAGGAGGAGGUGUAUCGAAUUUUCGGCGGAUUCCUCCAAA	< 1e-05
AUAAAAGCGCCAGAACUACAGAAAUGUAGUUGAAGAGUAAGAGCUUUAUCGAAUCUUCGGCGGAUGCCUGCAAA	< 1e-05
AUAAAAGCGCCAGAACUACAGAAAUGUAGUUUACGAGGAGGGGGUUUAUCGAAUCCUGGGCGGAUGCCUCCAAA	5.49e-05 ± 1.3e-05
AUAAAAGCGCCAGAACUACAGAAAUGUAGUUGAUGAGGAGGAGGUUUAUAGAAUUUUGGGCCGAUGCCUCCAAA	< 1e-05
AUAAAAGCGCCAGAACUACAGAAAUGUAGUUGAAGAGGAGGAGGUUUAUUGAAUUUUCGGCGGAUGACUCCAAA	< 1e-05
AUAAAAGCGCCAGAACUACAGAAAUGUAGUUGAUGAGUAGGAGGUUUAUGGAAUUUUCGGCGGAUGCCUCCAAA	0.000215 ± 5.7e-05
AUAAAAGCGCCAGAACUACAGAAAUGUAGUUUACGAGGAGGAGGUAUAUUGAAUUUUCGGCGGAUGCCUCCAAA	< 1e-05
AUAAAAGCGCCAGAACUACAGAAAUGUAGUUCACGAGGAGGAGGUUUAUCGAACUUUCGGCGGAUGCCUCCAAA	1.41e-05 ± 5.6e-06
AUAAAAGCGCCAGAACUACAGAAAUGUAGUUGAAGAGGUGAAGGUUUAUCGAAAUUUCGGCGGAUGCCUCCAAA	< 1e-05
AUAAAAGCGCCAGAACUACAGAAAUGUAGUUGAGGAGGAGGACGUUUAUCGAUAUUUCGGCGGAUGCCUCCAAA	< 1e-05
AUAAAAGCGCCAGAACUACAGAAAUGUAGUUUACGAGGAGGCGGUUUAUCGACUAUUCGGCGGAUGCCUCCAAA	< 1e-05
AUAAAAGCGCCAGAACUACAGAAAUGUAGUUGAAGAGGAGGAGGUUUAUCCAAGUUUCGGCGGAUGCCUCCAAA	< 1e-05
AUAAAAGCGCCAGAACUACAGAAAUGUAGUUGGCGAGGAGGGGGUUUAUCGGAUUUUCGCCGGAUGCCUCCAAA	< 1e-05
AUAAAAGCGCCAGAACUACAGAAAUGUAGUUGGCGAGGAGGAGGUUUAUCGAAUUGUCCGCGGAUGCCUCCAAA	< 1e-05
AUAAAAGCGCCAGAACUACAGAAAUGUAGUUGAAGAUGAGGAGGUGUAUCGAAUUUUCGGCGGAGGCCUCCAAA	< 1e-05
AUAAAAGCGCCAGAACUACAGAAAUGUAGUUGUCGAGGAGGAGGUUUAUCGAAUUUUCGGCGGCUGCCUACAAA	< 1e-05

Variant	self-cleavage kobs at 2500 uM GlcN6P [s⁻¹]
AUAAAAGCGCCAGAACUACAGAAAUGUAGUUCACGAGGAGGAGGUUUAUCGAAGUUUCGGCGGUUGCCUCCAAA	< 1e-05
AUAAAAGCGCCAGAACUACAGAAAUGUAGUUGAUGAGGAAGAGGUUUAUCGAAUUUACGGCGGAUGCCUCCAAA	< 1e-05
AUAAAAGCGCCAGAACUACAGAAAUGUAGUUGUAGAGGAGGAGUUUUAUCGCAUUUUCGGCGGAUGCCUCCAAA	< 1e-05
AUAAAAGCGCCAGAACUACAGAAAUGUAGUUUACGAGGAGGAGGUUUCUCCAAUUUUCGGCGGAUGCCUCCAAA	< 1e-05
AUAAAAGCGCCAGAACUACAGAAAUGUAGUUGUCGAGGAGGAGGUGUGUCGAAUUUUCGGCGGCUGCCUUCAAA	< 1e-05
AUAAAAGCGCCAGAACUACAGAAAUGUAGUUGCCGAUGAGGGGUUUUAUCGAAUUUUCGGCGGGUUCCUCCAAA	< 1e-05
AUAAAAGCGCCAGAACUACAGAAAUGUAGUUGUCUAGGAGGAGGUUUAUCCAAUUUUCGGCGGUUGCCUCCAAA	< 1e-05
AUAAAAGCGCCAGAACUACAGAAAUGUAGUUGAAGAGGAGGAGGUUUCUCGAAAUUUCGGCGGAUGCCUCCAAA	< 1e-05
AUAAAAGCGCCAGAACUACAGAAAUGUAGUUGCCGAGAAGGAGGUUUAUCGAAUUUUUGGCGGACGCCUCCAAA	< 1e-05
AUAAAAGCGCCAGAACUACAGAAAUGUAGUUGAAGAGGAGAAGGUUCAUCGAAUUUUCGGCGGAUGCCUCCAAA	< 1e-05
AUAAAAGCGCCAGAACUACAGAAAUGUAGUUGGCACGGAGAAGGUUUAUCGAAUUUUCGGGGGAUGCGUCCAAA	< 1e-05
AUAAAAGCGCCAGAACUACAGAAAUGUAGUUGAGGAGGAGGAGGUUUAUCUAAUUCUCGGCGGAUGUCUCCAAA	< 1e-05
AUAAAAGCGCCAGAACUACAGAAAUGUAGUUGUCGAGGAGGAGGUUUAUCGCAUUUUCGGCGCAUGCCUCCAAA	< 1e-05
AUAAAAGCGCCAGAACUACAGAAAUGUAGUUGCCGAGGAAGACGUUUAUCGCAUUUUCGGCGGAUGCCUCCAAA	< 1e-05
AUAAAAGCGCCAGAACUACAGAAAUGUAGUUGAAGAGGAGGAGGUUUAUCGAAUGUUCGGCGGGUGCCUCCAAA	< 1e-05
AUAAAAGCGCCAGAACUACAGAAAUGUAGUUGUGGUGGAGGAGGUUUAUCGAAUUUUCGGCGGAUGUCUCCAAA	< 1e-05
AUAAAAGCGCCAGAACUACAGAAAUGUAGUUGAUGAGGAGGAGGUUUAUCGAAUUUUCAGCGGAUGCCUCUAAA	< 1e-05
AUAAAAGCGCCAGAACUACAGAAAUGUAGUUGCCGCGUAGAAGGUUUAUCGAAUUUUCGGCGGAUCCCUCCAAA	< 1e-05

Variants of: B1
Assay: self-cleavage kobs at 10000 uM GlcN6P; higher = faster cleavage; RNA array
Conditions: with glucosamine-6-phosphate
Method in brief: as §1

Variant	self-cleavage kobs at 10000 uM GlcN6P [s⁻¹]
AUAAAAGCGCCAGAACUACAGAAAUGUAGUUCACGAGGAGGAGGUUUAUCGAACUUUCGGCGGAUGCCUCCAAA	8.23e-05 ± 1.2e-05
